Test results: patent US20030208037A1 (CYTOVIA, published 2003)
*: point of attachment. TFB = 2,3,4,5-tetrafluorobenzoyl; PFB = pentafluorobenzoyl; Cbz = O=C(OCc1ccccc1)*; R110 = rhodamine 110

Target: T1, recombinant caspase-3 (UniProt P42574 29-277, limits assumed)
T1 sequence (looked up): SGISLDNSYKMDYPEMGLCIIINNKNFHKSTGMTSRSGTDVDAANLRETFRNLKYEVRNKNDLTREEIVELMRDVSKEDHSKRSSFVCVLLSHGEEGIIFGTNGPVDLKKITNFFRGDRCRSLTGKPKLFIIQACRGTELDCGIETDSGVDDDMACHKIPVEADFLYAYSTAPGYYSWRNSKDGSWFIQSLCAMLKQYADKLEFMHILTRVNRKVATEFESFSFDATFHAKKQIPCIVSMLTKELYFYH
Assay: cell-based or functional assay

Binder: Ac-DEVD-{R110-TFB} [N-(Ac-DEVD)-N'-(2,3,4,5-tetrafluorobenzoyl)-R110]
- increase in fluorescence on cleavage of the substrate (cell-free enzyme assay, 10 uM substrate, 3 hours at 37 C): ~50 fold

Binder: Cbz-DEVD-{R110-PFB} [N-(Z-Asp-Glu-Val-Asp)-N'-pentafluorobenzoyl-Rhodamine 110]
- increase in fluorescence on cleavage of the substrate (cell-free enzyme assay): > 10 fold
